Experimental data: the domain aggregation screens of Martell et al. (2025)

Test: soluble fraction after stress (log2 fold change); higher = more stays soluble; pooled small domains, quantitative proteomics
Details: stress: pH 4
Outline: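 Aggregation propensity is read out as the fold change in how much of each domain remains soluble after acid stress. The custom small-domain libraries were pooled, held at pH 4 and analysed with high-throughput quantitative proteomics. On the log2 scale used, higher values mean more of the domain stayed soluble.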

Sequence | soluble fraction (log2)
HMTTTPAERQRTILRSLNRVDPVSVDALARLTGVSVVTIRRDLSDLASRDLIRRVHGGALLPTR | 0.339
HMTTYSVDLGDIRAVADSDGKLVELTLHAAVTTHYSHSELADRLNLAFTALREEAQADYETRY | -0.0597
HMTTYTGVVTGSGVNVRSGAGTSYPVVGSKTMGDVVTITETVSADGMIWGKIDIGWISMNYVRM | -0.434
HMTVAQEIEARRATIRSSDPAEMARFIRWLIMEGHTEPAADELKKYAENFPEASATTKQLQALLAAR | 0.147
HMTVDIADALRVLGLSDAPDWSDVRAAHRRAIVRTHPDAGGSAGDAARVNQAFDLLRKISGNGERPIPG | 0.0966
HMTVDTSELEEMIDDLIKEHPNEWERYSSGEKKVQGFFVGQVMKATSGQADGKAINQILSKRVKS | 0.000391
HMTVDYDKFTKDTVVQHNKFGKGVIIMTSGDGEDKIASIAFQGLGVKRFSLAIAASNLKILGKVNED | -0.195
HMTVEVFQSLVQTFREMSPRKAASILEELKRDLAVEILLHMPEDGVAAILARMDPARAARLTEQLALEKD | -0.867
HMTVGEAHLEEVYLKVLKQVEEQGTALIRTTDVETGRPAAGIRRRYMRGTLPDEWVAKFEALPGWTWAPG | -0.952
HMTVGEKIQKYRKDLDLSQEELGQKLLVSRQTISLWEKDQTVPTIDNLIRLREIFGVSVDEILGF | -1.69
HMTVIARQIPPLVPRMLDGLEAFIKLDVPFEEKERLARVQMLRSSLDRDNLDTAEIFRAVLEAYNIELQY | 0.195
HMTVKKEIAKVKPTPLGWLRVRETPSLNGAEITKVNTGESYDVLDKETGWIKIKVSETVEGWVSDAYIELS | 0.124
HMTVLPTENDAKALVGLNEDEAVKIIEGNGWTYRIGSRDGEQFMLTEDYSTSRLTLGIEKSIVVTATI | -0.56
HMTVLVPNLTGKTLLEAEILLDQAGLKKGDVYSESNKNVPKDHIIRQKPAPNTKIQKGATIDIYRSLGPE | -0.0793
HMTVNLPPKQKAAILLMSLPPEVSAQLFKELGPDEVHAITLEISKLPPISPDVRAQVIDEFLHSS | -0.226
HMTVSIGSVIARERRLRGDTQQELAERLGVSKAAVSKWEVGQSIPDVTLLPRIAAYFSLTLDEL | -0.276
HMTVVLPGESLTVNIIQEGKELGQGVGYLDDGTMVVIEDGRRYIDQTIEVTVTRVLQTVAGRMIFAQLT | -0.886
HMTWDSFIGYTVTDVQKGYLGEITDVDETTINVLLRVDHKGEELLIPAVEELITEADHEARSLTVSLPEGL | -2.11
HMTYFIADLIGLQVYTDSGELLGKVDDIYNSGSADIYVVKDELGKQILLPGIKDVIKQIDVDNEKIIVHLI | -1.62
HMTYIQSNLKFLRNKMNISQEELAKRLFVTHQTVSNHENGKSQPNFEMIEKYASFFNVPFEDLIHKDLSL | -0.309
HMTYNIPEHYQTIDVKEYVRKLVSDGDSDQIGRVEMELTEFETRNLFPVLKVLIYIIDTMRK | -1.73
HMTYQTVRYGSTGSAVRQLQSALNQKGYQLSEDGIFGAKTRAAVRDYQKKNGLLLDGIAGSQTWNHLMS | ≥ 0.43
HMTYSSESVRYRIKSLIDNETIDEILSDDKIVNILKSQGIDVARRTVAKYREAMGLASSIQRRREKKSA | -0.0241
HMVAGGTVSRKLSIETGLPKRKSLIGSWLDQNSVWHNIISVRHRNGYGDGVNYGFYLRSLLTSEGNLAW | 0.0466
HMVAGHLQTKKGYYYIVLNMRTDTGARKTKWIATGIPEGGKKNLKQAEELLAKTRYTYEDMVI | 0.0939
HMVAPKTEEQQKMFLESIVTKRQAETLIEKYPNIVQDIIDGTDNVDLANLKGIGEHTYNLIKEKVLSNY | -0.159

Sequence | soluble fraction (log2)
HMVAPPILNITTHIFAEEADLRMVMINGVTRREGDSLGENHRLLEITERGLILIFHNKQYTLDV | -2.1
HMVAQEVPYSTFVMRLDRNEVDAVKIIDGNEIEGTFKSPNGDLVQFKTLIPYQDTELMPLLKQKGVRISGS | ≥ 0.43
HMVARPVLQIGSTGADVTAIQARLGVSQTGYFGVLTAAAVTNFQRSNGIAASGKVGATTWAKLMQSA | 0.316
HMVAVSQEEATKMALERVSGASAQDIRIQLEFDDGIQKYEGDIIYNGREYEFEIDANTGTFLEWSEERA | ≥ 0.43
HMVDETDVPTFTDMTLEEAQNEAKQRNLKLEITESPSDKEKDTILEQDPEPGKTVASGSTVKLTVSNGEE | 0.138
HMVDFHAAYSILRIAPGASWQEIQAAYEKLNDAWREDRYPQVPFWNEKAAFKRREVEQAYEKLRKFHALRH | 0.0778
HMVDFVNVVVPVKANYGGEAVVEFLDERLSEFGTEGIYRIELQGETMENPSPDYSQLKAKYHISEIVDRT | -0.375
HMVDKDFKPLYASLERLDSTSIIEILDSNRIDYRIDQRSGALLVDADQIHQARLSLASAGMPA | -0.844
HMVDLANIDPIASSIKLNGAEADASFNTLEDRRVSVSGSFEENKNYTMEYTFKDYAGGSVTGTLDFKTLA | 0.129
HMVDLAPTEEIIKNLPNNSRSLLIPTLQKIQNAYRYLPSPAMELLSEFLNVTRAEIYGVISFYPSLL | 0.129
HMVDLLDETLIEFYAFANNLIKDLETNSEKYGGMSQFEKELIFNEQITQYQRKLKIDLQDEVG | -1.39
HMVDPRLRSLTPQERRILEHIAEGLTNRQIAEDMFLAEKTVKNYVTSILDKLGMDSRTQAAVYAATHPT | -0.438
HMVDSTDLIPLLIKVSREKQGNKKLNWGEWLKIPENIYLKQINENIARKVFEDTNDLIDEAVNYINRKRRN | -0.558
HMVDTEVFSRLLRKVLAGDVTSAIRILEELIVGGRELSQFVGDFTWYMRNLLLVKTSDNPEEA | -0.116
HMVDYYEILGVSPDASRKDIENAWRKKMREAHPDMGGSEDKAQLLNEAHKVLSDESARAEYDASR | -0.0915
HMVELPDLIGKSKRLAFTQLEISGLKIGKIIYEPDLAKDAVLKILYNGKIVKAGEQLPRFATVDLVLG | -0.0904
HMVEMIGLQMVGKSGIASTVLRPSGKVRIDGVVYDAVSEDGFIEKGQAVKVLRYETGQVYVEKL | 0.0132
HMVEPIEESISQLSLLLQSLYEDGKSEVSFEELIRSDRSRVSLFLALLFMAQRGNVYLEQEELFGDLRVKN | -0.4
HMVEREYRLEVPPEAEGKRLDQFLVNQPVQLSRSQVQHLIQNGLVLVNAKTRRSSYRVHTGDIIEMQVPA | -0.088
HMVERQVTVPNLTGLGVADAQRLAQSMELDIEVLGEQESTDARPGAVLQQTPGAGTRAAAGSVVSVLV | -0.179
HMVEVPEQLRDLLERSIEDLAELSVRSRNSLQKENIQTLGDLVQRTEEEMLGIENFGKKSLTEIAAFL | -0.92
HMVEYFDDENLDAFIGRESDSYTEKEIEQFREILYTMNQKEVADWNRSLTIRGINIPNDLKDEMIMMI | -2.71
HMVEYIENINLSEKQKFIAHEILKEIRGRAIFLRDVGLDYLNLSRKAGTLSGGEAQRIRLATQIGSA | -0.347
HMVFKSAQEGLDFYSKQLNDVDATLGRIRRGEESGNGLYGSNRVKNLEEQRKKLDSFVTAYRNAVNAT | 0.177
HMVFTEEEMLEKIKEYLSTNSYINRRAMETLFNLRQSTALKWLGHFTEIGVLRKEGERNYPVYFLNN | -0.159
HMVGADTISDLISQRGRMIGDKPITNAVIKSGSEFSTINALSKAIASGDARTNDVEGMKPVFR | -0.0241

Sequence | soluble fraction (log2)
HMVGKGASIILDRVNLPQYLEKFNEDGFDTIESLKNLNEIDLKEMGVKKGHIRVILNYLHEEY | -0.48
HMVGLKWYDTGNKKPPIGTEYKNTELSEALKGHDRKEFTWKELDVLGVNITDKEQYIVVGENYYTQV | 0.22
HMVGPAHIGLAVAKDQLPHWERHLTANGVEIEGRMRWDHGGESIYFRDPDAHLLELVTPGIWAN | -0.1
HMVGVDMTVKEEVGKEGVTFTDLRPAGKVEIGNDIYDAVSNTGAFIQKGEKVKIIKYQAGQVYVEKLV | 0.187
HMVIANADVRAKFSKGKDSFVKYYFKEKVLKDGFTEEVKNNIVQALFYLQIVTRIDGESGVLIIDY | 0.187
HMVIDETVLIDLFERLAEDDRPQRVAFRYILALVLLRKRTLQLIGREDEDDGEIWLLRFKGTDGEPIRV | -2.56
HMVIGKHSGSHTLVNDLAKRGITLDKEESATLLEMVRKAAVGLHRSISSDELYGLYKDMKSGQDPFEDS | 0.14
HMVINVKEILERIKLVKGFHTQIEIARFLGVSKGTISNWLARNSVDFPLVISKLDGVDLNWLFTGIGMPQ | -0.433
HMVISNDEFEDYLNRATEQLVSELSSGKNPRDAVHDLALTFADQHNKSYDAYQRMADSLEARMHTL | -0.156
HMVITEQTVTVKYLYEDDTEAAPEHSETHKTGETFEIESPKIDGFTPDYELITGTIANDDLVYIVRYKTTP | -0.526
HMVITQVSTTQTDTTFQYHKVKPKETLFSISRLYEVSIDEIKTINPALNSRELMAGELLKLPIK | -0.337
HMVKGIVPNLIGKTQDEAKQMAEEYGFSIGTVSEKASDKPKGTVIEQSPKAGAKASGVTSINIVVSDGS | -0.247
HMVKKYEKVKEYLLERILDGTYVPDLPIPPERELASLLDVNRMTVRRAVEELMYDGYLIRKKGSGTYLTR | -0.2
HMVKLSVGDIVQFAGGPHYVSSSAAKPASSPTAGPAKVTMIYQGAKHPYHIVHTTSASTVWGWVDADKVVK | -0.208
HMVKNLRKLREELGLTQQRLAELTGISKSRIYSYESLDREPDIAGLITLADFFSVSIDYLVGK | -1.01
HMVKPKIILADIGMITETDVTLAKASQAVLIAFNVKPSKEAKKLAEDENIKISTYNIIYEVLDFVKKSMSG | 0.0492
HMVLALRGIVQGGAEPLVILSDGRTSQSLAVGERFLAYEVVEIGRTGVRLRGPEGEIWLAMASF | -1.37
HMVLANLQAAEQGDLGIKEGEKLTILQTRPDGWWTARNANGETGLVPK | 0.0851
HMVLFDLSEREKEVLKLLADGNSYKMIASRLEITYFTVNAHLKKIYEKLQVHSASEAVSVALRNSL | -1.36
HMVLIQNEDVKDISNYPLLSSVPVFDVFNNKMIIPTFNKDSFNPLIYNFNFNSKRRLIYRVDNTNYLIVIK | -0.241
HMVLMPIDALRGSSSSSEMRIAAVKFSPSKGWYFSLQERSDEGSSYYEQKVASDGSVSERVKVR | -0.69
HMVLNVMIEEEVHREIIAAISKLPKERRRVVELSMAGFSQEEIAEKMAISVNTVKTIKLRAYRVLRERLKG | -0.208
HMVLPELRLQGLPTAVLRLINRATALADDYRRLMEIAEDGRIDEWEAPEFERISENIQRVIAAGFEVL | 0.1
HMVLQHHTATKALSYHTSASASAAVKGSFARGDSVQVVQGGSQTADGAKWHKVKVGSSYYYAAAEHLTP | -0.616
